The supplement of paper PMC11865577

What follows are sequences tested on G-clamp-N3 (biotin conjugate) (assay: pull-down binding Z-score (relative to library population); higher = stronger binding). Details: RNA library: Library-1 (pre-miRNA loops + repeats).
How it was run: (§1)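 An RNA library (1 μg) carrying a Cy5 or Cy3 end label was heat-folded in phosphate/NaCl/KCl buffer, then incubated for 60 min at 25 °C with streptavidin beads loaded with 100 pmol of biotin-conjugated small molecule. The beads were washed three times, and bound RNA was released in hot SDS and hybridised to a DNA barcode microarray for 20 h at 55.5 °C. Each binding score was derived by subtracting the signal from beads without compound, averaging the barcoded replicate probes after removing the highest and lowest, and expressing the result as a Z-score relative to the library mean and standard deviation.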
In the case of GACGAUUUGAAUUAAUAAAUUC [hsa-mir-579], the “pull-down binding Z-score” value is reported as 0.799.
In the case of GACGGCGCCCGCCCUGGCCCUGGC [hsa-mir-4745], the “pull-down binding Z-score” value is reported as 0.486.
“GACGGUGGGGGCCACGCUGACAGCCGC [hsa-mir-6804]” was tested, and the “pull-down binding Z-score” value was 1.9.
In the case of GACGUCCAAUCUCUUUGGGACGCC [hsa-mir-2682], the “pull-down binding Z-score” value is reported as 2.24.
“GACGUGAAGGGACCACAUCCCGCUUCAUGUC [hsa-mir-4697]” was tested, and the “pull-down binding Z-score” value was -0.0598.
For GACUGCUCAAGGUCAAAGGGGUC [hsa-mir-3918], the “pull-down binding Z-score” value was 2.12.
With “GACUGGACAACAUGAUGAGCCCAAACCAAUC [hsa-mir-5092]” the “pull-down binding Z-score” value was -1.85.
With “GACUUCCAUGACAUGAAAUAGGAAGUC [hsa-mir-616]” the “pull-down binding Z-score” value was 0.351.
GACUUGAGAUUAUAGUC [hsa-mir-3685] was tested, and the “pull-down binding Z-score” value was -0.369.
In the case of GACUUUUCUAUUUUCCAAAAGC [hsa-mir-423], the “pull-down binding Z-score” value is reported as -0.657.
“GAGAAACUUGAGGUCUCUGGGAGUUGCUUAAACCAGUUGACCGUAACCUGGCCAGAGAAUUCUGAUAGUGUC [hsa-mir-6740]” was tested, and the “pull-down binding Z-score” value was 1.09.
With “GAGAACUCACGGUGCCUGUGGUUCGA [hsa-mir-3125]” the “pull-down binding Z-score” value was -0.479.
For GAGACAACUUCCCAGUCUC [hsa-mir-6717], the “pull-down binding Z-score” value was -0.0467.
With GAGACACCCGCUACCUGGUGUU [hsa-mir-4321] the “pull-down binding Z-score” value was -0.619.
With GAGACACUC [hsa-mir-6126] the “pull-down binding Z-score” value was -0.909.
In the case of GAGACGCUUUUAAAGUCUC [hsa-mir-3926-2], the “pull-down binding Z-score” value is reported as 0.131.
In the case of “GAGACUGCCCAAAGACUCUUCAGUAUC [hsa-mir-2681]”, the “pull-down binding Z-score” value is reported as -0.411.
In the case of GAGACUUAGAAAUCCCUAAGUCUC [hsa-mir-3921], the “pull-down binding Z-score” value is reported as 0.443.
For GAGACUUUAAAAGCGUCUC [hsa-mir-3926-1], the “pull-down binding Z-score” value was 0.184.
“GAGACUUUGUGAUUUGUCUCCAAAGCCUC [hsa-mir-6862-2_6862-1]” was tested, and the “pull-down binding Z-score” value was -1.06.
“GAGAGAGUGCACAGCCAGCUCAGGGAUUAAAGCUCUUUCUCUCUCUCUC [hsa-mir-7110]” was tested, and the “pull-down binding Z-score” value was -0.385.
In the case of GAGAGUGCUGUCUGAAUGCAAUGC [hsa-mir-500a], the “pull-down binding Z-score” value is reported as 1.08.
With GAGAGUGCUUUCUGAAUGCAAUGC [hsa-mir-501] the “pull-down binding Z-score” value was 1.7.
For GAGAUGUGAUCCUGCCACAUCUC [hsa-mir-1304], the “pull-down binding Z-score” value was 0.421.
For GAGCCCUGAGGGGCUC [hsa-mir-6087], the “pull-down binding Z-score” value was 1.46.
For GAGCCCUUGCACACCACCAGCCUC [hsa-mir-6845], the “pull-down binding Z-score” value was -1.73.
In the case of GAGCCUGUCACAUCUCCAGACUC [hsa-mir-3925], the “pull-down binding Z-score” value is reported as -1.04.
With GAGCCUUAAAGGAUGAGGUA [hsa-mir-4280] the “pull-down binding Z-score” value was -0.485.
In the case of GAGCUCAGGAGCUC [hsa-mir-8052], the “pull-down binding Z-score” value is reported as 0.271.
“GAGCUGGAAGGAGUGGGCCUGGCUC [hsa-mir-6847]” was tested, and the “pull-down binding Z-score” value was 4.26.
GAGCUGGGUGGGGUGCCAAGCCU [hsa-mir-6819] was tested, and the “pull-down binding Z-score” value was 1.38.
For “GAGCUUCGUGUACAUUAUCUAUUAGAAAAUGAAGUAC [hsa-mir-4724]”, the “pull-down binding Z-score” value was -0.219.
In the case of “GAGGAUGCAGGAGAGGAAGGGGGCUUCUUUUUGACGCCUACUUCAUCAGCUGCUCCUC [hsa-mir-4330]”, the “pull-down binding Z-score” value is reported as 0.824.
In the case of GAGGCCAGAGGUGCCC [hsa-mir-4292], the “pull-down binding Z-score” value is reported as 0.687.
GAGGCCUCUUGCCAUGGCCUCC [hsa-mir-7113] was tested, and the “pull-down binding Z-score” value was -1.1.
“GAGGGAUGAGUGCACUUCACCUGC [hsa-mir-4435-1_4435-2]” was tested, and the “pull-down binding Z-score” value was 0.0709.
“GAGGGGCAUGCACUGUGUUCACCCUG [hsa-mir-134]” was tested, and the “pull-down binding Z-score” value was -0.276.

These sequences were tested on TO-N3-2 (biotin conjugate) in the same assay as above. Details: RNA library: Library-2.
How it was run: as §1
With GAAACAUCUUUUAC [hsa-mir-4514] the “pull-down binding Z-score” value was -0.469.
For “GAAAUAGGCUGCGAAGAUAACAGUAUUUC [hsa-mir-3942]”, the “pull-down binding Z-score” value was -0.482.
GAAAUGUGUGGAAGAUGGCAUUUC [hsa-mir-4482] was tested, and the “pull-down binding Z-score” value was 0.278.
For GAACACUAUUCCAUUGUGUUC [hsa-mir-588], the “pull-down binding Z-score” value was -1.31.
In the case of “GAACCCAAGAAAAGCUGACUUGGAGGUCCC [hsa-mir-4667]”, the “pull-down binding Z-score” value is reported as 1.27.
With “GAACCCAGGGAGCCAGACUGCCUGGGUUC [hsa-mir-607]” the “pull-down binding Z-score” value was -0.0198.
In the case of “GAACUAACUAACCAGAACUAUUUUGUUC [hsa-mir-4652]”, the “pull-down binding Z-score” value is reported as -0.742.
In the case of “GAACUUUUACGGUGAACCAGGAGGUUC [hsa-mir-629]”, the “pull-down binding Z-score” value is reported as -0.0865.
“GAAGAAGAAGAAGAAGAAGAAGAAGAAGAAGAAGAAGAAGAAGAAGAA [r(GAA)16]” was tested, and the “pull-down binding Z-score” value was 3.94.
With GAAGAUUCUGAAAAUCACUAACU [hsa-mir-6878] the “pull-down binding Z-score” value was -0.0867.
For GAAGCACUGGUUAUGAUUUGCAUC [hsa-mir-3126], the “pull-down binding Z-score” value was 0.429.
“GAAGCCGCUCCCACCUGACCCUCACGGCCUC [hsa-mir-3605]” was tested, and the “pull-down binding Z-score” value was 1.46.
For “GAAGCCUUGAUCAGAAGCUAGGAAGGCUUC [hsa-mir-4762]”, the “pull-down binding Z-score” value was 0.593.
GAAGCGAGAUGUUUGUCUAAA [hsa-mir-6835] was tested, and the “pull-down binding Z-score” value was 0.915.
With “GAAGCUCCUAUAGCUCCUGUAGCUUC [hsa-mir-578]” the “pull-down binding Z-score” value was 0.587.
With “GAAGCUGUAAGACACAGCUAAGCUUU [hsa-mir-30d]” the “pull-down binding Z-score” value was 0.0477.
With “GAAGCUGUAAGGUGUUCAGAGGAGCUUU [hsa-mir-30e]” the “pull-down binding Z-score” value was 1.1.
“GAAGCUGUGAAGCCACAGAUGGGCUUU [hsa-mir-30a]” was tested, and the “pull-down binding Z-score” value was 0.641.
In the case of “GAAGGAAGGCAAGGCUGUCUGUCCAUC [hsa-mir-4800]”, the “pull-down binding Z-score” value is reported as 0.685.
In the case of “GAAGGGAAGCUGGGAACCUGACUGCCUC [hsa-mir-6867]”, the “pull-down binding Z-score” value is reported as 1.66.
With “GAAGGGGAGUUUCCCUCUAUUCCCUUC [hsa-mir-3679]” the “pull-down binding Z-score” value was -0.594.
In the case of GAAUGAAAAAAUGAAUCAUC [hsa-mir-421], the “pull-down binding Z-score” value is reported as -0.0724.
For GAAUUCGAUUCAUCAAAGCGAGUC [hsa-mir-485], the “pull-down binding Z-score” value was 0.225.
GAAUUCGCUUUAUUUAUGUUGAAUC [hsa-mir-377] was tested, and the “pull-down binding Z-score” value was -0.874.
“GACAAUAUGUAUAAUGUUCAUAAGUCAUUC [hsa-mir-384]” was tested, and the “pull-down binding Z-score” value was -0.0426.
With “GACACCUGGAUUCAGAGAACAUGUC [hsa-mir-1276]” the “pull-down binding Z-score” value was 0.137.
With “GACACUUUCACUAUAUAUAGUGGC [hsa-mir-3156-3]” the “pull-down binding Z-score” value was -0.533.
For “GACAGGCUGGCCUCUGGAUGACCUGC [hsa-mir-5189]”, the “pull-down binding Z-score” value was 1.37.
In the case of “GACAGGGAAAAGCACACAAGGAACUUGUC [hsa-mir-3909]”, the “pull-down binding Z-score” value is reported as -0.0273.
With “GACAGGGCAGAGGGUUGCGCCCCCUC [hsa-mir-6511b-1_6511b-2_6511a-2_6511a-3_6511a-1_6511a-4]” the “pull-down binding Z-score” value was 1.23.
In the case of “GACAUCCCUCAUCUGUUUCUCACUGGUGUC [hsa-mir-6830]”, the “pull-down binding Z-score” value is reported as -0.507.
With GACAUCUGGGCCAACUCUGAUCUC [hsa-mir-6515] the “pull-down binding Z-score” value was 0.777.
For “GACAUGCUCUGACUCCCCUGAUGUC [hsa-mir-6852]”, the “pull-down binding Z-score” value was 1.18.
With “GACCAAAAGUCAACAUUAAACAACAAAUCUUGGCC [hsa-mir-5708]” the “pull-down binding Z-score” value was -0.998.
With “GACCCCCAUGCACCCCUGUGGGCCCCUGGCAUC [hsa-mir-1257]” the “pull-down binding Z-score” value was 1.21.
For GACCGUUGGCAUCUUAAUUACCCUC [hsa-mir-532], the “pull-down binding Z-score” value was 0.318.
In the case of “GACCUGGAUGUGUAGGAGCUAAGACACACUCCAGGGG [hsa-mir-920]”, the “pull-down binding Z-score” value is reported as 1.41.
With GACGAUUUGAAUUAAUAAAUUC [hsa-mir-579] the “pull-down binding Z-score” value was -0.419.
For GACGGCGCCCGCCCUGGCCCUGGC [hsa-mir-4745], the “pull-down binding Z-score” value was 1.96.
For “GACGGUGGGGGCCACGCUGACAGCCGC [hsa-mir-6804]”, the “pull-down binding Z-score” value was 1.89.
GACGUCCAAUCUCUUUGGGACGCC [hsa-mir-2682] was tested, and the “pull-down binding Z-score” value was -0.436.
With “GACGUGAAGGGACCACAUCCCGCUUCAUGUC [hsa-mir-4697]” the “pull-down binding Z-score” value was 0.229.
For GACUGCUCAAGGUCAAAGGGGUC [hsa-mir-3918], the “pull-down binding Z-score” value was 0.66.
“GACUGGACAACAUGAUGAGCCCAAACCAAUC [hsa-mir-5092]” was tested, and the “pull-down binding Z-score” value was 0.433.
With “GACUUCCAUGACAUGAAAUAGGAAGUC [hsa-mir-616]” the “pull-down binding Z-score” value was -0.705.
In the case of GACUUGAGAUUAUAGUC [hsa-mir-3685], the “pull-down binding Z-score” value is reported as -0.546.
With GACUUUUCUAUUUUCCAAAAGC [hsa-mir-423] the “pull-down binding Z-score” value was -0.573.
With “GAGAAACUUGAGGUCUCUGGGAGUUGCUUAAACCAGUUGACCGUAACCUGGCCAGAGAAUUCUGAUAGUGUC [hsa-mir-6740]” the “pull-down binding Z-score” value was 1.32.
With “GAGAACUCACGGUGCCUGUGGUUCGA [hsa-mir-3125]” the “pull-down binding Z-score” value was 1.49.
With GAGACAACUUCCCAGUCUC [hsa-mir-6717] the “pull-down binding Z-score” value was -0.848.
With GAGACACCCGCUACCUGGUGUU [hsa-mir-4321] the “pull-down binding Z-score” value was 0.471.
In the case of GAGACACUC [hsa-mir-6126], the “pull-down binding Z-score” value is reported as -0.469.
GAGACGCUUUUAAAGUCUC [hsa-mir-3926-2] was tested, and the “pull-down binding Z-score” value was -1.22.
With “GAGACUGCCCAAAGACUCUUCAGUAUC [hsa-mir-2681]” the “pull-down binding Z-score” value was 0.223.
In the case of GAGACUUAGAAAUCCCUAAGUCUC [hsa-mir-3921], the “pull-down binding Z-score” value is reported as -0.875.
